Laboratory results: the supplement of paper PMC10567573

B1: SMG5 (parent)
chain: TNPDLIIVCAQSSQSLWNRLSVLL
B2: FEM1B (parent)
chain: TLAALLLNRSESDIRYLLGYVSQQ
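Note: lentivirally expressed fusions sorted by FACS into six bins by GFP to DsRed ratio, PSI derived from sequencing read proportions per bin multiplied by bin number.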

Variants of: B1
Test: protein stability index of a GFP-peptide fusion (GPS, HEK-293T) (PSI 1-6); higher = more stable
Settings: c terminus: a fixed tail appended
Variant N2G has a protein stability index of 2.66.
Work on N2V yielded a protein stability index of 2.06.
N2C gave a protein stability index of 2.8.
Variant N2M has a protein stability index of 2.18.
Work on N2R yielded a protein stability index of 2.88.
Work on N2Y yielded a protein stability index of 1.77.
Variant N2P has a protein stability index of 3.06.
For N2K, the protein stability index was 2.66.
With N2E the protein stability index was 2.26.
Work on N2T yielded a protein stability index of 4.22.
In the case of N2W, the protein stability index is reported as 3.06.
Variant N2D has a protein stability index of 3.01.
In the case of N2L, the protein stability index is reported as 2.99.
I7P gave a protein stability index of 2.41.
Work on I7L yielded a protein stability index of 3.84.
With I7M the protein stability index was 1.67.
Variant I7D has a protein stability index of 1.7.
With I7N the protein stability index was 1.64.
I7Y showed a protein stability index of 1.65.
For I7Q, the protein stability index was 1.6.
I7A showed a protein stability index of 1.51.
For I7H, the protein stability index was 1.68.
I7T gave a protein stability index of 1.66.
I7R showed a protein stability index of 2.02.
With I7F the protein stability index was 1.45.
With I7G the protein stability index was 2.55.
For I7K, the protein stability index was 1.71.
I7V showed a protein stability index of 1.1.
Work on I7C yielded a protein stability index of 2.48.
In the case of I7E, the protein stability index is reported as 2.25.
For I7W, the protein stability index was 4.05.
For I7S, the protein stability index was 1.34.
Work on S12G yielded a protein stability index of 2.1.
In the case of S12C, the protein stability index is reported as 3.33.
In the case of S12R, the protein stability index is reported as 3.06.
With S12H the protein stability index was 3.49.
Variant S12K has a protein stability index of 1.89.
S12M showed a protein stability index of 2.99.
With S12Y the protein stability index was 4.01.
For S12L, the protein stability index was 3.9.
S12E showed a protein stability index of 2.22.
With S12F the protein stability index was 3.37.
In the case of S12I, the protein stability index is reported as 3.02.
In the case of S12P, the protein stability index is reported as 1.33.
With S12N the protein stability index was 1.99.
S12D gave a protein stability index of 2.12.
N18T gave a protein stability index of 2.56.
Variant N18E has a protein stability index of 1.56.
In the case of N18K, the protein stability index is reported as 2.
N18I gave a protein stability index of 2.43.
Work on N18D yielded a protein stability index of 2.97.
In the case of N18Y, the protein stability index is reported as 3.31.
With N18Q the protein stability index was 2.4.
Work on N18G yielded a protein stability index of 2.69.
For N18W, the protein stability index was 1.92.
N18C gave a protein stability index of 2.27.
N18A showed a protein stability index of 3.11.
Variant N18H has a protein stability index of 2.56.
Work on N18P yielded a protein stability index of 3.09.
In the case of N18L, the protein stability index is reported as 5.57.
In the case of N18R, the protein stability index is reported as 1.49.
Variant N18V has a protein stability index of 1.91.
L5Y showed a protein stability index of 1.47.
With L5F the protein stability index was 3.72.
In the case of L5S, the protein stability index is reported as 2.17.
L5T showed a protein stability index of 2.4.
With L5I the protein stability index was 2.06.
L5D gave a protein stability index of 1.76.
For L5N, the protein stability index was 1.63.
Work on L5V yielded a protein stability index of 2.51.
For L5R, the protein stability index was 1.39.
Variant L5K has a protein stability index of 2.82.
For L5H, the protein stability index was 1.29.
Work on L5W yielded a protein stability index of 1.4.
In the case of L5A, the protein stability index is reported as 2.09.
Work on L5Q yielded a protein stability index of 1.73.
Work on L5G yielded a protein stability index of 1.54.
Work on L5E yielded a protein stability index of 2.95.
Work on L5C yielded a protein stability index of 3.93.
Work on L5M yielded a protein stability index of 2.01.
With L5P the protein stability index was 2.94.
In the case of R19A, the protein stability index is reported as 1.74.
With C9F the protein stability index was 2.64.
With C9M the protein stability index was 1.76.
Variant C9I has a protein stability index of 2.72.
Variant C9T has a protein stability index of 1.95.
C9Q showed a protein stability index of 2.09.
In the case of C9P, the protein stability index is reported as 1.92.
With C9Y the protein stability index was 1.56.
For C9A, the protein stability index was 2.28.
C9L showed a protein stability index of 3.72.
C9S showed a protein stability index of 3.03.
In the case of C9E, the protein stability index is reported as 1.72.
With C9R the protein stability index was 2.12.
C9D gave a protein stability index of 2.29.
In the case of C9W, the protein stability index is reported as 3.33.
In the case of C9H, the protein stability index is reported as 1.64.
C9N showed a protein stability index of 2.35.
Work on C9K yielded a protein stability index of 1.98.
C9G gave a protein stability index of 1.45.
C9V gave a protein stability index of 2.69.
With D4G the protein stability index was 1.65.
With D4Q the protein stability index was 2.18.
Variant D4S has a protein stability index of 1.76.
Work on D4H yielded a protein stability index of 3.73.
In the case of D4P, the protein stability index is reported as 1.95.
D4C showed a protein stability index of 1.05.
With D4K the protein stability index was 3.33.
D4R gave a protein stability index of 1.94.
D4M gave a protein stability index of 4.85.
Work on D4A yielded a protein stability index of 1.33.
In the case of D4I, the protein stability index is reported as 2.79.
In the case of D4F, the protein stability index is reported as 1.71.
D4V showed a protein stability index of 1.67.
With S13A the protein stability index was 1.16.
With S13N the protein stability index was 2.7.
With S13H the protein stability index was 1.53.
With S13I the protein stability index was 1.41.
Work on S13M yielded a protein stability index of 2.
For S13L, the protein stability index was 2.97.
Work on S13Y yielded a protein stability index of 3.59.
Variant S13G has a protein stability index of 2.42.
S13C gave a protein stability index of 2.21.
For S13W, the protein stability index was 1.55.
With S13F the protein stability index was 1.49.
Work on S13D yielded a protein stability index of 1.59.
Variant S13R has a protein stability index of 1.36.
S13P gave a protein stability index of 3.21.
S13T gave a protein stability index of 3.23.
For S13K, the protein stability index was 2.48.
For S13V, the protein stability index was 1.88.
S13Q gave a protein stability index of 1.83.
S13E showed a protein stability index of 1.57.

Variants of: B2
Test: as above
Settings: c terminus: a fixed tail appended
Q24K gave a protein stability index of 4.32.
Q24Y showed a protein stability index of 2.22.
With Q24S the protein stability index was 2.18.
In the case of Q24A, the protein stability index is reported as 2.5.
For Q24E, the protein stability index was 2.39.
Q24D gave a protein stability index of 2.
In the case of Q24F, the protein stability index is reported as 2.26.
In the case of Q24V, the protein stability index is reported as 1.75.
With Q24N the protein stability index was 2.6.
Q24W showed a protein stability index of 2.52.
Q24M gave a protein stability index of 1.61.
Q24G showed a protein stability index of 2.68.
In the case of Q24H, the protein stability index is reported as 2.75.
With Q24I the protein stability index was 3.41.
In the case of Q24C, the protein stability index is reported as 3.34.
Variant Q24P has a protein stability index of 2.31.
Q24T gave a protein stability index of 3.19.
Work on Q23P yielded a protein stability index of 1.36.
Q23D gave a protein stability index of 2.67.
Variant Q23L has a protein stability index of 1.09.
For Q23S, the protein stability index was 2.92.
Q23C showed a protein stability index of 3.58.
Q23V showed a protein stability index of 2.77.
Q23F gave a protein stability index of 2.3.
For Q23E, the protein stability index was 3.21.
Q23I gave a protein stability index of 2.75.
Work on Q23G yielded a protein stability index of 2.58.
For Q23R, the protein stability index was 2.6.
In the case of Q23M, the protein stability index is reported as 3.68.
Work on Q23T yielded a protein stability index of 3.07.
Work on Q23K yielded a protein stability index of 2.87.
For Q23H, the protein stability index was 2.27.
For Q23Y, the protein stability index was 2.1.
With Q23N the protein stability index was 1.93.
